Results: the supplement of paper PMC9170038

Tested on: MS2 coat protein
Test: apparent KD of MS2 coat protein; designed switch direction (-1 OFF switch, 1 ON switch): -1; higher = weaker reporter binding
Summary of the method: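 Designed RNA switches sharing common flanks were transcribed on Illumina chips by stalled E. coli RNA polymerase. They were titrated with SNAP-549-labelled MS2 coat protein, from 0.7 or 1.5 nM doubling to 3 µM, in Tris-HCl pH 7.5 buffer with KCl, MgCl2, BSA, DTT, tRNA and Tween-20. Titrations ran without input, with 200 uM small-molecule ligand, or with an oligonucleotide input. The apparent KD of each design is the median over its clusters, after curve-fitting of normalised cluster fluorescence.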

[1] = Eterna round: R95, input ligand: FMN 200 uM
[2] = Eterna round: R95, input ligand: microRNA oligo, concentration not stated
[3] = Eterna round: R95, input ligand: none
[4] = input ligand: microRNA oligo, concentration not stated

Sequence | apparent KD of MS2 coat protein [1] | apparent KD of MS2 coat protein [2] | apparent KD of MS2 coat protein [3] | apparent KD of MS2 coat protein (input ligand: FMN 200 uM) | apparent KD of MS2 coat protein (input ligand: none) | apparent KD of MS2 coat protein [4]
AACAAUAAGGAGGAUAUCGUAUCGGAAACGAUACGAGAAGGCUUAACAUGAGGAUCACCCAUGUUCUUCAAUAA [Fiskers Ex 6 - 24] (puzzle: Exclusion 6) | 19.1 nM | 17.1 nM | 17.7 nM |  |  | 
AACAGGUCAGGAUAUACAUGAGGAUCACCCAUGUAGACUUCUGGUCUACCUUGACCGUGUAGAAGGGACCUGAA [Exclusion 3 (MOD2 of #98 Marzena11)] (Eterna round: R97, puzzle: Exclusion 3) |  |  |  | 43.9 nM | 28.8 nM | 
AACAGUACAGGAUAUACAUGAGGAUCACCCAUGUGAGACUUAAGUGGCGUACCACAAAGUAGAAGGGUACUGGA [JL Maslow Revisted mod 8] (Eterna round: R96, puzzle: Exclusion 3) |  |  |  | 838 nM | 90.3 nM | 85.9 nM
AACAGUCUGGAGGAUAUGCUGGAUUAAUAUCUGGCAGAAGGCUGGACAUGAGGAUCACCCAUGUAAAUACUACC [Omei Ex6 A2] (Eterna round: R97, puzzle: Exclusion 6) |  |  |  | 55.2 nM | 21.5 nM | 
AACAUGUAAGGAUAUAAAAGAAGGAGUACAAAGCCCUCCUAUUAGAAGGUACAUGAGGAUCACCCAUGUGGCGG [Eternabot (L2) Solution 96] (Eterna round: R97, puzzle: Exclusion 4) |  |  |  | 336 nM | 57.1 nM | 
AACAUGUGAGGAUAUUUAAGAAAAGAAAAGAAAGAAAAGAAAAAGAAGGCACAUGAGGAUCACCCAUGUAAGAA [EteRNA is fun!] (Eterna round: R96, puzzle: Exclusion 4) |  |  |  |  |  | 19 nM
AACCAGCGAGGAUAUGCUUGCGCGUGUUCUGGUUGUAAUCGACUUGAGGAUCACCCAAGUAGAAGGCGCUGCCG [EX2 #51] (Eterna round: R97, puzzle: Exclusion 2) |  |  |  | 100 nM | 50.9 nM | 
AACCGUGCGGAGGAUAUUGAUAUCCCAGUCUAUCAAGAAGGCUGCACAUGAGGAUCACCCAUGUGAUCCGUGCU [Riri] (Eterna round: R96, puzzle: Exclusion 6) |  |  |  | 201 nM | 25.1 nM | 20.7 nM
AACCGUGCGGAGGAUAUUGAUAUCCCAGUCUAUCAAGAAGGCUGCACAUGAGGAUCACCCAUGUGAUCCGUGCU [Riri] (puzzle: Exclusion 6) |  | 23.6 nM |  |  |  | 
AACCUCGGAGGAUAUACCUACCGAUUCACAAGUGUCACAUCACAUGAGGAUCACCCAUGUAGAAGGUCGAGGCG [Onorzais] (puzzle: Exclusion 2) |  | 30.1 nM |  |  |  | 
AACCUGAGGCUUUGCUUUAGGUGUACAUGAGGAUCACCCAUGUAGGAUAUGGUAGGCUUUGCUUACCAGAAGGACAUAAUGAUG [JL ENG3 1.16] (Eterna round: R96, puzzle: Exclusion NG 3) |  |  |  | 81.1 nM | 55.2 nM | 30.6 nM
AACCUGUCAGGAUAUCAAUUCUGUGCGUGACUACAGGACGCUGAGAAGGGACAUGAGGAUCACCCAUGUUGACU [Eternabot (Original) Solution 33] (Eterna round: R97, puzzle: Exclusion 4) |  |  |  | 24.7 nM | 26.8 nM | 
AACGUGGCUUAGGAUAUUGCUACGCAAAAGUAACAAGAAGGAGGCACAUGAGGAUCACCCAUGUGAUUCGUUGA [Ineror] (puzzle: Exclusion 6) |  | 14.8 nM |  |  |  | 
AACGUGUGAGGAUAUGCCGUGCCCUUCCGGAAGGAGCGGGUGCAGAAGGCACAUGAGGAUCACCCAUGUCGGCA [Excls4-V] (puzzle: Exclusion 4) |  | 31.4 nM |  |  |  | 
AACUCACAUGAGGAUCACCCAUGUGAGGAUAUGGUUUCGCUGGCCGUAGCCAGUGGAACCAGAAGGCGCGUGAU [Mat - Exclusion 1 - JL Mod - D26] (Eterna round: R97, puzzle: Exclusion 1) |  |  |  | 52.4 nM | 58.9 nM | 
AACUCAUGUUCAGGAUAUCGCGUUCCAAAGACAUGAGAAGGGAACAUGAGGAUCACCCAUGUGCCCGGUCUCAGACCGGGCUUC [Legebi] (Eterna round: R96, puzzle: Exclusion NG 1) |  |  |  | 272 nM | 97.1 nM | 71 nM
AACUCCUCAGGAUAUCUGAAAAUGGACAUGAGGAUCACCCAUGUGAAAGUCACAUCCGGAGGAGAAGGGAGGAGAA [Diororlera] (Eterna round: R97, puzzle: Exclusion 5) |  |  |  | 44.6 nM | 16 nM | 
AACUUCUGAGGAUAUACAUAGAUUUACAUGAGGAUCACCCAUGUUCCUCUAUGUAUAAAUGUAGAAGGCAGAAGAA [JL-ex5-4.37 Malcolm mod] (Eterna round: R97, puzzle: Exclusion 5) |  |  |  | 88.6 nM | 18.3 nM | 
AAGAAACAGCUAGGAUAUCAGACCAACAUGAGGAUCACCCAUGUCAAGGUCUUUCUUAGUAGGUUUGAGAAGGAGCCAUAAAUA [Xelequriqu] (Eterna round: R96, puzzle: Exclusion NG 2) |  |  |  | 11.7 nM | 11.2 nM | 9.11 nM
AAGAAACAUGAGGAUCACCCAUGUCAGGAUAUGAGAAGAAAGAAGAAGAAAGAAGGAAUCAGAAGGGACAAAGG [Ex 1 M6 Mod of Hoglahoo] (puzzle: Exclusion 1) | 45.5 nM | 51.7 nM | 41.8 nM |  |  | 
AAGAAACAUGAGGAUCACCCAUGUGAGGAUAUGAAAAAGAAAAGAAAAGAAAGAAGAAUCAGAAGGCACAAAGA [salish99-ex1_r3_080] (puzzle: Exclusion 1) | 26.9 nM | 22.2 nM | 27.1 nM |  |  | 
AAGAAACAUGAGGAUCACCCAUGUGAGGAUAUGAAAAAGAAAAGAAAAGAAAGAAGUAUCAGAAGGCACAAAGG [salish99-ex1_r3_023] (puzzle: Exclusion 1) | 57.6 nM | 38.6 nM | 62.8 nM |  |  | 
AAGAAACAUGAGGAUCACCCAUGUGAGGAUAUGAAAAAGAAAAGAAAAUAAAGAAGAAUCAGAAGGCACAAAGG [Mat - Mod of Hog D3] (puzzle: Exclusion 1) | 37.7 nM | 34.4 nM | 46.1 nM |  |  | 
AAGAAACAUGAGGAUCACCCAUGUGAGGAUAUGACAAAGAAAAGAAAAGAAAGAAGACUCAGAAGGCACAAAGG [salish99-ex1_r3_039] (puzzle: Exclusion 1) | 46.3 nM | 40.6 nM | 52 nM |  |  | 
AAGAAACAUGAGGAUCACCCAUGUGAGGAUAUGACCAAGAAAAGAAAAGAAAGAAGAUUCAGAAGGCACAAAGG [salish99-ex1_r3_060] (puzzle: Exclusion 1) | 49.7 nM | 29.9 nM | 40.7 nM |  |  | 
AAGAAACAUGAGGAUCACCCAUGUGAGGAUAUGAGCAAGAAAAGAAAAGAAAGAAGAAUCAGAAGGCACAAAGG [salish99-ex1_r3_050] (Eterna round: R96, puzzle: Exclusion 1) |  |  |  | 68.5 nM | 37.4 nM | 31.7 nM
